# Ends that are not written are not given here. * marks the point of attachment. Biotin = O=C1N[C@H]2[C@H](CS[C@H]2CCCCC(=O)*)N1
# Target: GST-DLG1 PDZ domains 1-2 fusion protein (human) (UniProt Q12959)
# Assay: G assay titration of biotinylated peptide on immobilized GST-PDZ, saturation fit (apparent affinity)
row,Binder,Kd
1,Biotin-KDITSDSENSNFRNEIQSLV [CD95 (Apo-1/Fas) C-terminal peptide AA13L],54 µM
2,Biotin-ISGTPTSTMVHGMTSSSSVV [CLASP-2 C-terminal peptide AA2L],21 µM

# — patent US6942981
